According to patent US20260265379A1 (IMCHECK THERAPEUTICS, published 2026):

B1: bsAb037 (bispecific antibody)
heavy 1: QVQLVQSGVEVKKPGASVKVSCKASGYTFTNYYMYWVRQAPGQGLEWMGGINPSNGGTNFNEKFKNRVTLTTDSSTTTAYMELKSLQFDDTAVYYCARRDYRFDMGFDYWGQGTTVTVSS
heavy 2: DIQMTQSPSSLSASVGDRVTITCHASQNINVWLSWYQQKPGKAPKLLIYKASNLHTGVPSRFTGSGSGTDFTFTISSLQPEDIATYYCQQGQTYPYTFGQGTKLEIKGGGGSGGGGSGGGGSGGGGSQVQLVQSGAEVKKPGASVKLSCKASGYIFTRYYMYWVKQRPGQGLEWIGEINPNNGGTKFNEKFKNRATLTVDKSISTAYMELSRLRSDDTAVYYCSREDDYDGTPFAMDYWGQGTLVTVSSGGGGSGGGGSGGGGSGGGGS
light: EIVLTQSPATLSLSPGERATLSCRASKGVSTSGYSYLHWYQQKPGQAPRLLIYLASYLESGVPARFSGSGSGTDFTLTISSLEPEDFAVYYCQHSRDLPLTFGGGTKVEIKRTVAAPSVFIFPPSDEQLKSGTASVVCLLNNFYPREAKVQWKVDNALQSGNSQESVTEQDSKDSTYSLSSTLTLSKADYEKHKVYACEVTHQGLSSPVTKSFNRGECGGGGSGGGGSGGGGSGGGGSQVQLVQSGAEVKKPGASVKLSCKASGYIFTRYYMYWVKQRPGQGLEWIGEINPNNGGTKFNEKFKNRATLTVDKSISTAYMELSRLRSDDTAVYYCSREDDYDGTPFAMDYWGQGTLVTVSSGGGGSGGGGSGGGGSGGGGSDIQMTQSPSSLSASVGDRVTITCHASQNINVWLSWYQQKPGKAPKLLIYKASNLHTGVPSRFTGSGSGTDFTFTISSLQPEDIATYYCQQGQTYPYTFGQGTKLEIK
notes: one Fab arm anti-PD-1, two scFv anti-BTN3A; not shown: IgG1 CH1-hinge-CH2-CH3; CH2-CH3 (Fc)
B2: bsAb048 (bispecific antibody)
heavy 1: EIVLTQSPGTLSLSPGERATLSCRASQRVSSSYLAWYQQKPGQAPRLLIYDASSRATGIPDRFSGSGSGTDFTLTISRLEPEDFAVYYCQQYGSLPWTFGQGTKVEIKGGGGSGGGGSGGGGSGGGGSEVQLVESGGGLVQPGGSLRLSCAASGFTFSRYWMSWVRQAPGKGLEWVANIKQDGSEKYYVDSVKGRFTISRDNAKNSLYLQMNSLRAEDTAVYYCAREGGWFGELAFDYWGQGTLVTVSSGGGGSGGGGSGGGGSGGGGSQVQLVQSGAEVKKPGASVKLSCKASGYIFTRYYMYWVKQRPGQGLEWIGEINPNNGGTKFNEKFKNRATLTVDKSISTAYMELSRLRSDDTAVYYCSREDDYDGTPFAMDYWGQGTLVTVSS
heavy 2: QVQLVQSGAEVKKPGASVKLSCKASGYIFTRYYMYWVKQRPGQGLEWIGEINPNNGGTKFNEKFKNRATLTVDKSISTAYMELSRLRSDDTAVYYCSREDDYDGTPFAMDYWGQGTLVTVSS
light: not shown
notes: IgG anti-BTN3A, one scFv anti-PD-L1; not shown: IgG1 CH1-hinge-CH2-CH3
B3: bsAb050 (bispecific antibody)
heavy 1: EVQLVESGGGLVQPGGSLRLSCAASGFTFSRYWMSWVRQAPGKGLEWVANIKQDGSEKYYVDSVKGRFTISRDNAKNSLYLQMNSLRAEDTAVYYCAREGGWFGELAFDYWGQGTLVTVSSGGGGSGGGGSGGGGSGGGGSEIVLTQSPGTLSLSPGERATLSCRASQRVSSSYLAWYQQKPGQAPRLLIYDASSRATGIPDRFSGSGSGTDFTLTISRLEPEDFAVYYCQQYGSLPWTFGQGTKVEIKGGGGSGGGGSGGGGSGGGGSQVQLVQSGAEVKKPGASVKLSCKASGYIFTRYYMYWVKQRPGQGLEWIGEINPNNGGTKFNEKFKNRATLTVDKSISTAYMELSRLRSDDTAVYYCSREDDYDGTPFAMDYWGQGTLVTVSS
heavy 2: B2 heavy 2
light: not shown
notes: as for B2
B4: bsAb021 (bispecific antibody)
heavy: QVQLVQSGAEVKKPGASVKLSCKASGYIFTRYYMYWVKQRPGQGLEWIGEINPNNGGTKFNEKFKNRATLTVDKSISTAYMELSRLRSDDTAVYYCSREDDYDGTPFAMDYWGQGTLVTVSSGGGGSGGGGSGGGGSGGGGSDIQMTQSPSSLSASVGDRVTITCHASQNINVWLSWYQQKPGKAPKLLIYKASNLHTGVPSRFTGSGSGTDFTFTISSLQPEDIATYYCQQGQTYPYTFGQGTKLEIKGGGGSGGGGSGGGGSGGGGSQVQLVQSGVEVKKPGASVKVSCKASGYTFTNYYMYWVRQAPGQGLEWMGGINPSNGGTNFNEKFKNRVTLTTDSSTTTAYMELKSLQFDDTAVYYCARRDYRFDMGFDYWGQGTTVTVSSASTKGPSVFPLAPSSKSTSGGTAALGCLVKDYFPEPVTVSWNSGALTSGVHTFPAVLQSSGLYSLSSVVTVPSSSLGTQTYICNVNHKPSNTKVDKRVEPKSCDKTHTCPPCPAPEFEGGPSVFLFPPKPKDTLMISRTPEVTCVVVDVSHEDPEVKFNWYVDGVEVHNAKTKPREEQYNSTYRVVSVLTVLHQDWLNGKEYKCKVSNKALPASIEKTISKAKGQPREPQVYTLPPSREEMTKNQVSLTCLVKGFYPSDIAVEWESNGQPENNYKTTPPVLDSDGSFFLYSKLTVDKSRWQQGNVFSCSVMHEALHNHYTQKSLSLSPG
light: EIVLTQSPATLSLSPGERATLSCRASKGVSTSGYSYLHWYQQKPGQAPRLLIYLASYLESGVPARFSGSGSGTDFTLTISSLEPEDFAVYYCQHSRDLPLTFGGGTKVEIKRTVAAPSVFIFPPSDEQLKSGTASVVCLLNNFYPREAKVQWKVDNALQSGNSQESVTEQDSKDSTYSLSSTLTLSKADYEKHKVYACEVTHQGLSSPVTKSFNRGEC
notes: IgG anti-PD-1, scFv anti-BTN3A
B5: bsAb034 (bispecific antibody)
heavy (part 1 of 2): B1 heavy 1
heavy (part 2 of 2): GGGGSGGGGSGGGGSGGGGSQVQLVQSGAEVKKPGASVKLSCKASGYIFTRYYMYWVKQRPGQGLEWIGEINPNNGGTKFNEKFKNRATLTVDKSISTAYMELSRLRSDDTAVYYCSREDDYDGTPFAMDYWGQGTLVTVSSGGGGSGGGGSGGGGSGGGGSDIQMTQSPSSLSASVGDRVTITCHASQNINVWLSWYQQKPGKAPKLLIYKASNLHTGVPSRFTGSGSGTDFTFTISSLQPEDIATYYCQQGQTYPYTFGQGTKLEIK
heavy: B5 heavy (part 2 of 2)
light: B4 light
notes: as for B1

Key:
[1] = target: T1, PD-1 at the surface of Jurkat-PD-1 cells (human, UniProt Q15116 25-288); assay: flow cytometry, Jurkat-PD-1 cells
T1 construct: whole, on cells
T1 sequence (Q15116 25-288): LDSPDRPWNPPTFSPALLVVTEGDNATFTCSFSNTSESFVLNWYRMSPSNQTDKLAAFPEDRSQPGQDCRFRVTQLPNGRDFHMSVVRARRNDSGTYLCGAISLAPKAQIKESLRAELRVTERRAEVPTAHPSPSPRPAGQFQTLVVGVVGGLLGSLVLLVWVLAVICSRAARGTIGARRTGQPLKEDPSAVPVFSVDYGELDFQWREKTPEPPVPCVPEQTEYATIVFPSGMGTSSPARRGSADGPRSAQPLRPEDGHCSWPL

recombinant human PD-1 = target: T2, recombinant human PD-1 (human, UniProt Q15116 25-167, limits assumed); assay: SPR
T2 construct: Soluble antigen in SPR; also called rhPD-1
T2 sequence (Q15116 25-167 limits assumed): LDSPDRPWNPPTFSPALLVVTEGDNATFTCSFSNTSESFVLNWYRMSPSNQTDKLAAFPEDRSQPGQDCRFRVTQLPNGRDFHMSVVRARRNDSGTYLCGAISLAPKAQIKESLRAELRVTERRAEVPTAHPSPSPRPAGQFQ
Method: (§1) SPR measures the interactions between two or more biomolecules. In capture kinetics analysis, an antibody is immobilized onto a gold-plated prism. The immobilized antibody is referred to as the ligand. An injection of antigen, referred to as the analyte, is carried out, often as a concentration series. The captured analytes are removed from the sensor chip surface using a regenerating agent, for example a low pH or high ionic strength solution. If investigating binding to several analytes, the antibodies are recaptured from solution before each analyte titration series. The instrument records the changes in refractive indexes (due to the accumulation or depletion of mass) in time and plots the results as sensorgrams.
(§2) Affinity measurements with respect to BTN3A, PD-1 and PD-L1 were performed by SPR technology, for instance in a Carterra LSA Platform instrument using a soluble form of the antigen as the analyte and the antibody as the ligand. Binding was also assessed through in cellulo binding assays, on cell lines (e.g. HEK293T cells) genetically modified to express the targets of interest or genetically modified to extinct target expression.
(§3) The 69 produced bsAbs and control mAbs were also evaluated for their binding affinity to recombinant proteins by SPR assays. The equilibrium dissociation constant (KD) was then calculated for constructs showing detectable binding.

recombinant human BTN3A1 = target: T3, recombinant human BTN3A1 (human, UniProt O00481 30-254); assay: SPR
T3 construct: Soluble form of the antigen used in SPR; also called rhBTN3A1; recombinant BTN3A1 protein
T3 sequence (O00481 30-254 limits assumed): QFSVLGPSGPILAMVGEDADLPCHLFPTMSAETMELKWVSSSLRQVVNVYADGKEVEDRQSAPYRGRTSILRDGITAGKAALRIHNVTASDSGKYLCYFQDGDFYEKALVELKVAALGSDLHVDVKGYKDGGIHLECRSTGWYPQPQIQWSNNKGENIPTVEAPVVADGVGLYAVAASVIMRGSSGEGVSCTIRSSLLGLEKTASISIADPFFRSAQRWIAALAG
Method: as §1, §2, §3

[2] = target: T4, BTN3A1 at the surface of HEK-BTN3A1 cells (human, UniProt O00481 30-513); assay: flow cytometry, HEK-BTN3A1 cells
T4 construct: HEK 293T BTN2A/BTN3A KO cells transduced with a BTN3A1 expressing vector
T4 sequence (O00481 30-513 limits assumed): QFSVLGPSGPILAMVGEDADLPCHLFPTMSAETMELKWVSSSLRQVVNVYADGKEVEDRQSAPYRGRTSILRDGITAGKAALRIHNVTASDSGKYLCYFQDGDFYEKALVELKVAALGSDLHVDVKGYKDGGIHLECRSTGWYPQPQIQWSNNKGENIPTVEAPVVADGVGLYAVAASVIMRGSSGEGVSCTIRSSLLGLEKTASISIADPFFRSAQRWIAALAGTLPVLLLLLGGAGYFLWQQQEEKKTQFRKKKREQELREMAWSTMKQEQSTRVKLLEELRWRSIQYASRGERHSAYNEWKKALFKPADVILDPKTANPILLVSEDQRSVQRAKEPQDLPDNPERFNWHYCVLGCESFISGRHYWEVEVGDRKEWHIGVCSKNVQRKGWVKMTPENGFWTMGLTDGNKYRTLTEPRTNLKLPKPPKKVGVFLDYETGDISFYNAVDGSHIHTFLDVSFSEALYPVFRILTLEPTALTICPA

[3] = target: T5, PD-L1 at the surface of transduced cells (UniProt Q9NZQ7 19-290, limits assumed); assay: cell-based or functional assay
T5 sequence (Q9NZQ7 19-290 limits assumed): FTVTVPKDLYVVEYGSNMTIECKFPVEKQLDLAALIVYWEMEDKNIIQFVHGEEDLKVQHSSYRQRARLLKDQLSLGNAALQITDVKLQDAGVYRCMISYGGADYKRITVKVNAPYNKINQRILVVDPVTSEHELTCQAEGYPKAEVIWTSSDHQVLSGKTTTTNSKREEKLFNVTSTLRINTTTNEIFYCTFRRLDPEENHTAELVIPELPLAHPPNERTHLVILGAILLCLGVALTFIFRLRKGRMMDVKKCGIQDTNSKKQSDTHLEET

[4] = target: T5, PD-L1 at the surface of transduced cells; assay: flow cytometry, CHO-PD-L1 cells

| Binder | MFI at 10 nM [1] | MFI at 100 nM [1] | Kd (recombinant human PD-1) | Kd (recombinant human BTN3A1) | MFI at 10 nM [2] | MFI at 100 nM [2] | Jurkat-PD-1 activation at 10 nM [3] | Jurkat-PD-1 activation at 100 nM [3] | MFI at 10 nM [4] | MFI at 100 nM [4] |
| --- | --- | --- | --- | --- | --- | --- | --- | --- | --- | --- |
| B1 | 238000 MFI | 270000 MFI | 1.1 nM | 0.086 nM | 585000 MFI | 1.25e+06 MFI | – | – | – | – |
| B2 | – | – | – | 0.08 nM | 592000 MFI | 1.02e+06 MFI | 7.4 fold-change to medium | 8.9 fold-change to medium | 1.18e+06 MFI | 1.36e+06 MFI |
| B3 | – | – | – | 0.08 nM | 535000 MFI | 1.2e+06 MFI | 6.9 fold-change to medium | 7.8 fold-change to medium | 1.18e+06 MFI | 1.32e+06 MFI |
| B4 | 186000 MFI | 275000 MFI | 1.5 nM | 0.068 nM | 816000 MFI | 944000 MFI | – | – | – | – |
| B5 | 210000 MFI | 381000 MFI | 1.9 nM | 0.167 nM | 706000 MFI | 1.24e+06 MFI | – | – | – | – |
